The source of these data is patent US9101618B2, “Method for treating and/or preventing neurodegenerative disease by adiponectin receptor agonist” (TOKYO METROPOLITAN INSTITUTE OF MEDICAL SCIENCE, priority 2011, dated 2015).

What all share (type): cell-based, rat
Test [1] has as its system B103 neuroblastoma cells (α (alpha)S). Description: Immunoprecipitation with anti-α-synuclein antibody, detection of phosphorylated tau (Ser 202). Particulars: 1 μg/mL, 24 hours, NP40 soluble fraction. The procedure:
Immunoprecipitation was performed by standard procedures known to those skilled in the art. Briefly, the B103 neuroblastoma cells (α (alpha)S) were inoculated on a 10 cm dish, and were cultured to a state of about 80-90% confluence. The cells were then washed with PBS, followed by being cultured in a test medium (adiponectin-added group) prepared by adding recombinant human adiponectin (1 μg/mL, trimer, PROSPEC) to a serum-free medium. As a control, there was used a control medium (adiponectin non-added group) prepared by adding thereto PBS instead of recombinant human adiponectin. After being cultured for 24 hours, the cells were then lysed with a NP40 lysis solution (1% IGEPAL CA630 (Sigma-Aldrich Japan Inc), 150 mM NaCl, 50 mM Tris-HCl (pH 8.0), a protease inhibitor (NACALAI TESQUE, INC.)). Supernatants were collected after performing centrifugation at 100,000×g for 30 min. The supernatants thus collected were used as NP40 soluble fractions when performing immunoprecipitation. Immunoprecipitation was performed using Immunoprecipitation Starter Pack (GE Healthcare Japan Corporation) in accordance with a manual provided by the manufacturer and vender. […]

For another test, the system named is GSK-3β (beta). In words: Addition of p38 MAPK inhibitor and AMPK inhibitor: phospho-GSK-3β western blotting. Conditions: 1 μg/mL adiponectin 30 min, no inhibitor. The procedure:
The aforementioned B103 neuroblastoma cells (α (alpha)S) were inoculated on the 6-well plate and cultured to a state of about 80-90% confluence. After washing with PBS, the aforementioned cells were further cultured for 10 min in an inhibition test medium prepared by adding either 5 μM p38 MAPK inhibitor (SB203580, Promega) or 5 μM AMPK inhibitor (Compound C, Calbiochem) to a serum-free medium. As a control, DMSO was added to a serum-free medium instead of the aforementioned inhibitors. Later, either recombinant human adiponectin (1 μg/mL, trimer, PROSPEC) or PBS was added so as to culture the cells for 30 min. The cells collected were then lysed with the aforementioned cell lysis solution. Supernatants were collected after performing centrifugation at 100,000×g for 30 min, and then subjected to western blotting. Here, western blotting was performed in accordance with the procedures described in example 1.
When performing western blotting to evaluate signal transduction pathways, the anti-phospho-GSK-3β (beta) (Ser9) antibody (D85E12, Cell Signaling Technology), the anti-GSK-3β (beta) antibody (BD Biosciences) and the anti-β (beta)-actin mouse monoclonal antibody (C-15, Sigma-Aldrich Japan Inc.) were used as primary antibodies after being appropriately diluted. Further, the HRP labeled anti-mouse IgG antibody (DAKO) was used as a secondary antibody after being appropriately diluted.
A general note: A western blot detects proteins with antibodies after separation by electrophoresis.

Another test concerns AMPK. Description: Adiponectin addition (2): signal transduction, phospho-AMPK western blotting. Conditions: 1 μg/mL, 0, 10 and 30 min. The procedure:
The B103 neuroblastoma cells (α (alpha)S) and the B103 neuroblastoma cells (vector) were inoculated on a 5 cm dish and cultured to a state of about 80-90% confluence. Later, the aforementioned cells were washed with PBS, and then cultured in a serum-free medium for four hours. After washing with PBS, the cells were then cultured in a test medium (adiponectin-added group) prepared by adding recombinant human adiponectin (1_μg/mL, trimer, PROSPEC) to a serum-free medium. As a control, there was used a control medium (adiponectin non-added group) prepared by adding thereto PBS instead of recombinant human adiponectin. A culture time was 0, 10 and 30 min when evaluating signal transduction, 0, 1 and 2 hour(s) when evaluating tau phosphorylation. The cells collected were lysed with a cell lysis solution (1% TritonX-100, 1% Nonidet P-40, 50 mM HEPES, 150 mM NaCl, 10% glycerol, 1.5 mM MgCl2, 1 mM EGTA, 100_mM sodium fluoride, a protease inhibitor (NACALAI TESQUE, INC.)). Supernatants were collected after performing centrifugation at 100,000×g for 30 min, and were used as surfactant soluble fractions when performing western blotting. Here, western blotting was performed in accordance with the procedures described in example 1. […]

B1: adiponectin: recombinant human adiponectin (trimer, PROSPEC) added to serum-free medium at 1 μg/mL (protein, UniProt Q15848 19-244, looked up)
Adiponectin: ETTTQGPGVLLPLPKGACTGWMAGIPGHPGHNGAPGRDGRDGTPGEKGEKGDPGLIGPKGDIGETGVPGAEGPRGFPGIQGRKGEPGEGAYVYRSAFSVGLETYVTIPNMPIRFTKIFYNQQNHYDGSTGKFHCNIPGLYYFAYHITVYMKDVKVSLFKKDKAMLFTYDQYQENNVDQASGSVLLHLEVGDQVWLQVYGEGERNGLYADNDNDSTFTGFLLYHDTN
With B1, the “coprecipitation of phosphorylated tau with α-synuclein” value in test [1] is “did not coprecipitate”. For the same molecule, in the test on GSK-3β (beta), the “phosphorylated GSK-3β in surfactant soluble fraction” value is listed as “detected”. For the same molecule, the “phosphorylation of AMPK” value in the test with AMPK is reported as “promoted”.
